Experimental data reported in patent US20040121341A1 (RESEARCH FOUNDATION OF CITY UNIVERSITY OF NEW YORK, published 2004).

Molecular target: Nogo receptor (NgR)
Test: cell-based or functional assay

Row | Binder | neurite outgrowth of cerebellar neurons on MAG-expressing CHO cells, peptide at 15 uM (FIG. 4) [fold]
1 | VAFELPSRNVTVNETEREFVYSERSGLLLT [MAG peptide MAG(442-471)] | 2
2 | AAARDTVQCLCVVKSNPEPSVAFELPSRNV [MAG peptide MAG(422-451)] | 2
